We go through one substance from publication PMC8022203 (ACS infectious diseases, 2021).

In data set [1] the test system is CCN(CC)c1ccc2cc(-c3ccc(/C=N/NC(N)=S)s3)c(=O)oc2c1. Nature of the data set: purified protein. The note with it: pH 8.0; 37.0 °C.
For data set [2], the system named is CC(=O)Nc1ccc(/C=N/NC(N)=S)cc1. Nature of the data set: purified protein. To be noted: pH 8.0; 37.0 °C.

Turning to EthA (Mycobacterium tuberculosis H37Rv), the Km (usually the concentration of substrate that gives half-maximal velocity) in data set [1] amounted to 16 ± 2 µM; in data set [2], 153 ± 11 µM.
